Results as given in patent publication US20230357348A1 (AstraZeneca / MedImmune, published 2023).
Starred links: 1 amine or outer side, 2 acyl side, 3 side chain; linkers in the order of their positions; H or OH if unused. Non-standard residues stand in square brackets, D forms with d. Groups on a side chain read outwards from the residue. Primed or numbered codes have the meaning given here. No end group written: not given here. *: point of attachment. C20 diacid = O=C(O)CCCCCCCCCCCCCCCCCCC(=O)*; C18 diacid = O=C(O)CCCCCCCCCCCCCCCCC(=O)*; γGlu = O=C(O)[C@H](CCC(=O)[*:2])N[*:1]; Stearoyl = CCCCCCCCCCCCCCCCCC(=O)*; Palmitoyl = CCCCCCCCCCCCCCCC(=O)*; αMeF = C[C@](N)(Cc1ccccc1)C(=O)O; Myristoyl = CCCCCCCCCCCCCC(=O)*; PEG2′ = polyethylene glycol 2; AEEA = NCCOCCOCC(=O)O; Aib = CC(C)(N)C(=O)O

Assays:
[1] = biological target: human GLP-1 receptor (hGLP-1R) (human, UniProt P43220 24-463); assay: cell-based or functional assay
[2] = biological target: human glucagon receptor (hGCGR) (human, UniProt P47871 26-477); assay: cell-based or functional assay
human glucagon receptor (hGCGR), sequence (P47871 26-477): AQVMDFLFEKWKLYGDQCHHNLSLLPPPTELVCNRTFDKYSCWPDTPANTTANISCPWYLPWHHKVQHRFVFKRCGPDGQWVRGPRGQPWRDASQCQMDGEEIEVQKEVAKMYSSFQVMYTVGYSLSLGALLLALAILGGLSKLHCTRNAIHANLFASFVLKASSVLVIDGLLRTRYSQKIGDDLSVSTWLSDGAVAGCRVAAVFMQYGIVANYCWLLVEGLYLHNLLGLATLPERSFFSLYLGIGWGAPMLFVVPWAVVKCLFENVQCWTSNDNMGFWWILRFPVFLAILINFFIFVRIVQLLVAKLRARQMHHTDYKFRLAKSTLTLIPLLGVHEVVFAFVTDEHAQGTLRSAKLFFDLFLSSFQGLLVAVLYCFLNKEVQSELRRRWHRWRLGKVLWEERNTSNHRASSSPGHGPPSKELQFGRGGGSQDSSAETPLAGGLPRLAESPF

| Binder | hGLP-1R EC50 (pM) [1] [pM] | hGluc-R EC50 (pM) [2] [pM] |
| --- | --- | --- |
| H[Aib]HGS[αMeF]TSDVSK[αMeF]LDSK([AEEA-AEEA-γGlu-C18 diacid])AARD[αMeF]VESIANT-NH2 (N-terminus assumed; SMILES CC[C@H](C)[C@H](NC(=O)[C@H](CO)NC(=O)[C@H](CCC(=O)O)NC(=O)[C@@H](NC(=O)[C@](C)(Cc1ccccc1)NC(=O)[C@H](CC(=O)O)NC(=O)[C@H](CCCNC(=N)N)NC(=O)[C@H](C)NC(=O)[C@H](C)NC(=O)[C@H](CCCCNC(=O)COCCOCCNC(=O)COCCOCCNC(=O)CC[C@H](NC(=O)CCCCCCCCCCCCCCCCC(=O)O)C(=O)O)NC(=O)[C@H](CO)NC(=O)[C@H](CC(=O)O)NC(=O)[C@H](CC(C)C)NC(=O)[C@](C)(Cc1ccccc1)NC(=O)[C@H](CCCCN)NC(=O)[C@H](CO)NC(=O)[C@@H](NC(=O)[C@H](CC(=O)O)NC(=O)[C@H](CO)NC(=O)[C@@H](NC(=O)[C@](C)(Cc1ccccc1)NC(=O)[C@H](CO)NC(=O)CNC(=O)[C@H](Cc1c[nH]cn1)NC(=O)C(C)(C)NC(=O)[C@@H](N)Cc1c[nH]cn1)[C@@H](C)O)C(C)C)C(C)C)C(=O)N[C@@H](C)C(=O)N[C@@H](CC(N)=O)C(=O)N[C@H](C(N)=O)[C@@H](C)O) [Peptide 17] | 45 | 135 |
| HSQGS[αMeF]TSDVSK[Aib]LDSK([AEEA-AEEA-γGlu-C18 diacid])AAQD[αMeF]VQ[Aib]IAN-NH2 (N-terminus assumed; SMILES CC[C@H](C)[C@H](NC(=O)C(C)(C)NC(=O)[C@H](CCC(N)=O)NC(=O)[C@@H](NC(=O)[C@](C)(Cc1ccccc1)NC(=O)[C@H](CC(=O)O)NC(=O)[C@H](CCC(N)=O)NC(=O)[C@H](C)NC(=O)[C@H](C)NC(=O)[C@H](CCCCNC(=O)COCCOCCNC(=O)COCCOCCNC(=O)CC[C@H](NC(=O)CCCCCCCCCCCCCCCCC(=O)O)C(=O)O)NC(=O)[C@H](CO)NC(=O)[C@H](CC(=O)O)NC(=O)[C@H](CC(C)C)NC(=O)C(C)(C)NC(=O)[C@H](CCCCN)NC(=O)[C@H](CO)NC(=O)[C@@H](NC(=O)[C@H](CC(=O)O)NC(=O)[C@H](CO)NC(=O)[C@@H](NC(=O)[C@](C)(Cc1ccccc1)NC(=O)[C@H](CO)NC(=O)CNC(=O)[C@H](CCC(N)=O)NC(=O)[C@H](CO)NC(=O)[C@@H](N)Cc1c[nH]cn1)[C@@H](C)O)C(C)C)C(C)C)C(=O)N[C@@H](C)C(=O)N[C@@H](CC(N)=O)C(N)=O) [Peptide 1] | 3200 | > 27100 |
| HSQGS[αMeF]TSDVSKILDSK([PEG2′-PEG2′-γGlu-γGlu-Myristoyl])AAQD[αMeF]VQ[Aib]IINT-NH2 [Peptide 119] | 1.39 | 1.7 |
| H[Aib]HGS[αMeF]TSDVSK[αMeF]LDSK([AEEA-AEEA-γGlu-C18 diacid])AARD[αMeF]VE[Aib]IANT-NH2 (N-terminus assumed; SMILES CC[C@H](C)[C@H](NC(=O)C(C)(C)NC(=O)[C@H](CCC(=O)O)NC(=O)[C@@H](NC(=O)[C@](C)(Cc1ccccc1)NC(=O)[C@H](CC(=O)O)NC(=O)[C@H](CCCNC(=N)N)NC(=O)[C@H](C)NC(=O)[C@H](C)NC(=O)[C@H](CCCCNC(=O)COCCOCCNC(=O)COCCOCCNC(=O)CC[C@H](NC(=O)CCCCCCCCCCCCCCCCC(=O)O)C(=O)O)NC(=O)[C@H](CO)NC(=O)[C@H](CC(=O)O)NC(=O)[C@H](CC(C)C)NC(=O)[C@](C)(Cc1ccccc1)NC(=O)[C@H](CCCCN)NC(=O)[C@H](CO)NC(=O)[C@@H](NC(=O)[C@H](CC(=O)O)NC(=O)[C@H](CO)NC(=O)[C@@H](NC(=O)[C@](C)(Cc1ccccc1)NC(=O)[C@H](CO)NC(=O)CNC(=O)[C@H](Cc1c[nH]cn1)NC(=O)C(C)(C)NC(=O)[C@@H](N)Cc1c[nH]cn1)[C@@H](C)O)C(C)C)C(C)C)C(=O)N[C@@H](C)C(=O)N[C@@H](CC(N)=O)C(=O)N[C@H](C(N)=O)[C@@H](C)O) [Peptide 15] | 33.1 | 61.4 |
| H[Aib]HGS[αMeF]TSDVSK[αMeF]LDSK([AEEA-AEEA-γGlu-γGlu-C20 diacid])AARD[αMeF]VQ[Aib]IANT-NH2 (N-terminus assumed; SMILES CC[C@H](C)[C@H](NC(=O)C(C)(C)NC(=O)[C@H](CCC(N)=O)NC(=O)[C@@H](NC(=O)[C@](C)(Cc1ccccc1)NC(=O)[C@H](CC(=O)O)NC(=O)[C@H](CCCNC(=N)N)NC(=O)[C@H](C)NC(=O)[C@H](C)NC(=O)[C@H](CCCCNC(=O)COCCOCCNC(=O)COCCOCCNC(=O)CC[C@H](NC(=O)CC[C@H](NC(=O)CCCCCCCCCCCCCCCCCCC(=O)O)C(=O)O)C(=O)O)NC(=O)[C@H](CO)NC(=O)[C@H](CC(=O)O)NC(=O)[C@H](CC(C)C)NC(=O)[C@](C)(Cc1ccccc1)NC(=O)[C@H](CCCCN)NC(=O)[C@H](CO)NC(=O)[C@@H](NC(=O)[C@H](CC(=O)O)NC(=O)[C@H](CO)NC(=O)[C@@H](NC(=O)[C@](C)(Cc1ccccc1)NC(=O)[C@H](CO)NC(=O)CNC(=O)[C@H](Cc1c[nH]cn1)NC(=O)C(C)(C)NC(=O)[C@@H](N)Cc1c[nH]cn1)[C@@H](C)O)C(C)C)C(C)C)C(=O)N[C@@H](C)C(=O)N[C@@H](CC(N)=O)C(=O)N[C@H](C(N)=O)[C@@H](C)O) [Peptide 14] | 93.8 | 462 |
| HSQGS[αMeF]TSDVSKILDSK([PEG2′-PEG2′-γGlu-Stearoyl])AAQD[αMeF]VQ[Aib]IINT-NH2 [Peptide 120] | 1.81 | 2.62 |
| H[Aib]HGS[αMeF]TSDVSK[αMeF]LDSK([AEEA-AEEA-γGlu-C18 diacid])AARD[αMeF]VQ[Aib]IANT-NH2 (N-terminus assumed; SMILES CC[C@H](C)[C@H](NC(=O)C(C)(C)NC(=O)[C@H](CCC(N)=O)NC(=O)[C@@H](NC(=O)[C@](C)(Cc1ccccc1)NC(=O)[C@H](CC(=O)O)NC(=O)[C@H](CCCNC(=N)N)NC(=O)[C@H](C)NC(=O)[C@H](C)NC(=O)[C@H](CCCCNC(=O)COCCOCCNC(=O)COCCOCCNC(=O)CC[C@H](NC(=O)CCCCCCCCCCCCCCCCC(=O)O)C(=O)O)NC(=O)[C@H](CO)NC(=O)[C@H](CC(=O)O)NC(=O)[C@H](CC(C)C)NC(=O)[C@](C)(Cc1ccccc1)NC(=O)[C@H](CCCCN)NC(=O)[C@H](CO)NC(=O)[C@@H](NC(=O)[C@H](CC(=O)O)NC(=O)[C@H](CO)NC(=O)[C@@H](NC(=O)[C@](C)(Cc1ccccc1)NC(=O)[C@H](CO)NC(=O)CNC(=O)[C@H](Cc1c[nH]cn1)NC(=O)C(C)(C)NC(=O)[C@@H](N)Cc1c[nH]cn1)[C@@H](C)O)C(C)C)C(C)C)C(=O)N[C@@H](C)C(=O)N[C@@H](CC(N)=O)C(=O)N[C@H](C(N)=O)[C@@H](C)O) [Peptide 13] | 15.9 | 44 |
| HSQGS[αMeF]TSDVSKILDSK([PEG2′-PEG2′-γGlu-γGlu-Palmitoyl])AAQD[αMeF]VQ[Aib]IINT-NH2 [Peptide 118] | 1.07 | 1.2 |
| HSQGS[αMeF]TSDVSKILDSK([PEG2′-PEG2′-γGlu-Palmitoyl])AAQD[αMeF]VQ[Aib]IINT-NH2 [Peptide 121] | 1.5 | 1.2 |
| H[Aib]HGS[αMeF]TSDVSK[αMeF]LDSK([AEEA-AEEA-γGlu-C18 diacid])AARD[αMeF]IA[Aib]IANT-NH2 (N-terminus assumed; SMILES CC[C@H](C)[C@H](NC(=O)C(C)(C)NC(=O)[C@H](C)NC(=O)[C@@H](NC(=O)[C@](C)(Cc1ccccc1)NC(=O)[C@H](CC(=O)O)NC(=O)[C@H](CCCNC(=N)N)NC(=O)[C@H](C)NC(=O)[C@H](C)NC(=O)[C@H](CCCCNC(=O)COCCOCCNC(=O)COCCOCCNC(=O)CC[C@H](NC(=O)CCCCCCCCCCCCCCCCC(=O)O)C(=O)O)NC(=O)[C@H](CO)NC(=O)[C@H](CC(=O)O)NC(=O)[C@H](CC(C)C)NC(=O)[C@](C)(Cc1ccccc1)NC(=O)[C@H](CCCCN)NC(=O)[C@H](CO)NC(=O)[C@@H](NC(=O)[C@H](CC(=O)O)NC(=O)[C@H](CO)NC(=O)[C@@H](NC(=O)[C@](C)(Cc1ccccc1)NC(=O)[C@H](CO)NC(=O)CNC(=O)[C@H](Cc1c[nH]cn1)NC(=O)C(C)(C)NC(=O)[C@@H](N)Cc1c[nH]cn1)[C@@H](C)O)C(C)C)[C@@H](C)CC)C(=O)N[C@@H](C)C(=O)N[C@@H](CC(N)=O)C(=O)N[C@H](C(N)=O)[C@@H](C)O) [Peptide 16] | 33 | 105 |

The remaining lines, values ahead:

| hGLP-1R EC50 (pM) [1] [pM] | hGluc-R EC50 (pM) [2] [pM] | Binder |
| --- | --- | --- |
| 1.42 | 0.857 | HSQGS[αMeF]TSDVSKILDSK([PEG2′-PEG2′-γGlu-Myristoyl])AAQD[αMeF]VQ[Aib]IINT-NH2 [Peptide 122] |
| 0.575 | 6.68 | H[Aib]QGS[αMeF]TSDVSKILDSK([PEG2′-PEG2′-γGlu-γGlu-Palmitoyl])AAQD[αMeF]VQ[Aib]IINT-NH2 [Peptide 125] |
| 0.788 | 4.7 | H[Aib]QGS[αMeF]TSDVSKILDSK([PEG2′-PEG2′-γGlu-Palmitoyl])AAQD[αMeF]VQ[Aib]IINT-NH2 [Peptide 128] |
| 0.462 | 4.1 | H[Aib]QGS[αMeF]TSDVSKILDSK([PEG2′-PEG2′-γGlu-Myristoyl])AAQD[αMeF]VQ[Aib]IINT-NH2 [Peptide 129] |
| 0.998 | 12.6 | H[Aib]QGS[αMeF]TSDVSKILDSK([PEG2′-PEG2′-γGlu-Stearoyl])AAQD[αMeF]VQ[Aib]IINT-NH2 [Peptide 127] |
